In the supplement of paper PMC10126150:
± gives the standard deviation of the averaged measurements.

These sequences were tested on ATP (assay: switch fluorescence ratio, 500 uM ATP over buffer (Cy3 cluster intensity, sum of 5 cycles each) (fold (ratio)); higher = stronger signal-on switching upon ATP binding; sequences stand for … in TCGTCGGCAGCGTCAGATGTGTATAAGAGACAGTTTTTTTTTTTTTTTTTTTTTTTTT…TC). Details: aptamer strand: ATP DNA aptamer (quencher-CACCTGGGGGAGTATTGCGGAGGAAGG + anchor), 100 nM annealed; ATP concentration: 500 uM.
Outline: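 Imaging in selection buffer was followed by imaging after 15 min with 500 uM ATP at 22 °C, for Cy3-labelled switching-strand clusters annealed to 100 nM quencher-labelled ATP aptamer on a modified Illumina MiSeq flow-cell. Five of these buffer/ATP cycles ran, separated by NaOH stripping and re-annealing. The fluorescence ratio per cluster is summed target-cycle over summed buffer-cycle Cy3 intensity, averaged per switch-domain sequence; clusters outside 100-1000 RFU were removed.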
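Further: ATP exposure 15 min at 22 °C before imaging.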

Row | Sequence | switch fluorescence ratio
1 | ATATTGGATT | 0.994 ± 0.018
2 | CCAGGGGTCC | 2.93 ± 2.4
3 | GGGGGTTAGG | 1.01 ± 0.037
4 | TCAGGCCCGT | 1.01 ± 0.026
5 | TGTCGGTTTT | 0.996 ± 0.037
6 | CCTCAAAGGG | 1.38 ± 0.18
7 | ACGAAAAAAG | 1.02 ± 0.012
8 | ACGTCTTAGT | 1 ± 0.021
9 | CAGTCATTCG | 0.99 ± 0.016
10 | GGTTTTAGGG | 0.996 ± 0.039
11 | TCTCTGAATC | 1.24 ± 0.079
12 | TGAGGCTGGG | 1.02 ± 0.054
13 | CGAATGGTCG | 1.041 ± 0.0095
14 | ATTAATATCA | 0.9629 ± 0.0017
15 | TCCTTCAACT | 1.08 ± 0.045
16 | TTTGTCAAAC | 1.11 ± 0.13
17 | TATGTTAGGA | 1.0104 ± 0.00038
18 | AGTAGGGGCG | 1.03 ± 0.033
19 | ATTGGCCATC | 0.997 ± 0.0048
20 | TGAGATTGC | 1.03 ± 0.053
21 | TTAGTAGTGG | 0.974 ± 0.01
22 | ATACTGAGGC | 0.999 ± 0.029
23 | GGGGTGCATG | 0.997 ± 0.054

Row | Sequence | switch fluorescence ratio
24 | CCCCTTGCTC | 1.47 ± 0.058
25 | AGACGGGCAC | 1.074 ± 0.0063
26 | TGGATGTGGG | 1.03 ± 0.031
27 | GCGGAAAGGC | 1.01 ± 0.0025
28 | AAATTTATAA | 0.984 ± 0.044
29 | TCGTGTTCTG | 1.01 ± 0.029
30 | GGTCTACAGA | 1.02 ± 0.011
31 | GGGGTCAGTC | 0.9933 ± 0.0099
32 | GGGGCCGGGG | 1.01 ± 0.018
33 | GCATATGATC | 1.05 ± 0.021
34 | CAAGGTGTGT | 1.01 ± 0.043
35 | ACTGTTTTAT | 1.01 ± 0.038
36 | TTTTAGAGAG | 0.997 ± 0.019
37 | TTTAAGGGCC | 0.978 ± 0.036
38 | TTGATATATT | 0.981 ± 0.017
39 | AAAAGGGCTT | 1 ± 0.012
40 | TGTTTGTGGC | 1.12 ± 0.16
41 | TTCCGAGCTA | 2.563 ± 0.0074
42 | TGATGTTGGT | 0.988 ± 0.014
43 | AAATAACTAG | 0.99 ± 0.015
44 | TTCCACCAAA | 1.07 ± 0.033
45 | TTTTAGGTCA | 0.9901 ± 0.0063
46 | AAAAATCGAA | 1.02 ± 0.05

Row | Sequence | switch fluorescence ratio
47 | TTGGACTAAA | 1.06 ± 0.011
48 | AGGGGCAAAC | 1.45 ± 0.078
49 | TTTGTAAAGA | 1 ± 0.018
50 | ATCATGCGCT | 0.9964 ± 0.0092
51 | TGGTGTCAGC | 1.02 ± 0.013
52 | GGGAGAAAAT | 1.02 ± 0.011
53 | TTGGTATATA | 0.9879 ± 0.0069
54 | TTGGCTTACT | 1.11 ± 0.11
55 | CATCTTTGCA | 0.9943 ± 0.0063
56 | TTCTGCGGCT | 1.12 ± 0.039
57 | CGATGGCGGG | 1.02 ± 0.071
58 | GTTTTTCCTT | 0.998 ± 0.022
59 | GAGGTACTTG | 0.975 ± 0.039
60 | GAACTTAAAA | 1.02 ± 0.045
61 | AATTGTTAGT | 0.994 ± 0.03
62 | GAGTTTGGAC | 0.985 ± 0.058
63 | TATATGGGGG | 0.981 ± 0.026
64 | ACGTTAGGTC | 1.04 ± 0.019
65 | GTTATCTTTC | 1.07 ± 0.029
66 | TATAATGTGC | 1.04 ± 0.012
67 | AAGGGGTTT | 1.03 ± 0.065
68 | AAGGTGGGGT | 1.03 ± 0.026
69 | GGGGTGATCG | 0.9842 ± 0.0077

Row | Sequence | switch fluorescence ratio
70 | TAAGGTGGCT | 1.01 ± 0.043
71 | GGGGTACTGG | 1.01 ± 0.016
72 | AGTCGCCTGG | 1.003 ± 0.002
73 | CCAGGAGTGT | 1.08 ± 0.012
74 | ACTTGTAGTA | 1.01 ± 0.012
75 | GACGTCAGCG | 1.05 ± 0.059
76 | GGTGACGGGC | 0.978 ± 0.045
77 | TATAGGGAGG | 0.988 ± 0.027
78 | TCATATTATG | 1.02 ± 0.034
79 | TTTTGCTGCC | 1.027 ± 0.002
80 | TCGGTGTGCT | 1.06 ± 0.064
81 | GGCTTCTAAG | 0.994 ± 0.026
82 | AAAGGGGTTA | 1 ± 0.024
83 | CGCGCTTTCA | 1.02 ± 0.027
84 | GAATTGGGGA | 1.01 ± 0.029
85 | AAGTTCGGGA | 1 ± 0.029
86 | ACATGGGTT | 1.04 ± 0.05
87 | GTATTTAGGA | 0.992 ± 0.011
88 | TGAAAAATGT | 0.984 ± 0.016
89 | CAATGTTAGA | 1 ± 0.014
90 | TAGGGGGTAT | 1.02 ± 0.019
91 | GTGGCTGGGG | 1 ± 0.029
92 | GTACTAAATT | 1 ± 0.023

Row | Sequence | switch fluorescence ratio
93 | GTAAGTAGCG | 0.968 ± 0.02
94 | CGTCAGTATG | 1 ± 0.033
95 | TGTGAGTTTG | 1.03 ± 0.013
96 | TTTTAGATTT | 0.995 ± 0.026
97 | TTTAAGCCGG | 1.01 ± 0.032
98 | AACGGGGGTC | 1 ± 0.043
99 | ATGTTGACCG | 1.03 ± 0.044
100 | TTTGTGCACC | 0.9941 ± 0.005
101 | CATCGTGTTA | 1.01 ± 0.022
102 | TATGGGTGGC | 1.02 ± 0.11
103 | TACAGAATGA | 1.003 ± 0.0041
104 | TGCTCTACCT | 1.18 ± 0.057
105 | AGGGTCTGTT | 0.978 ± 0.012
106 | GGTTAGTGTC | 1.05 ± 0.047
107 | GATGGAACTA | 1.01 ± 0.034
108 | GTATTCATTT | 0.982 ± 0.036
109 | AAGGACCGGC | 0.991 ± 0.057
110 | CGGGGGGAGG | 1.01 ± 0.035
111 | AATCTTCTTA | 1.001 ± 0.0034
112 | TGAATTTCGA | 0.953 ± 0.025
113 | AGGGGGATTG | 0.987 ± 0.03
114 | GTCAGTTTTT | 0.99392 ± 0.00038
115 | GGCCGGTTGG | 0.9744 ± 0.0068

Row | Sequence | switch fluorescence ratio
116 | ATTAAGAGGC | 1.02 ± 0.06
117 | TCCAGGAATT | 1 ± 0.016
118 | AGTTGGAGTT | 0.978 ± 0.043
119 | TCGGGACATC | 1.03 ± 0.032
120 | GGAAGTTACA | 1.06 ± 0.016
121 | GGGTCGTGCT | 1.03 ± 0.022
122 | ATGTAGTGCA | 0.995 ± 0.034
123 | TCAGTTTTCT | 1.01 ± 0.057
124 | GAGCAGATTG | 1.02 ± 0.036
125 | TTTCTGGCCG | 0.907 ± 0.046
126 | AGACGGGGTC | 0.9848 ± 0.0021
127 | AGTGTCAGAA | 0.9896 ± 0.0084
128 | TGTAGGGATT | 1.01 ± 0.054
129 | ACAACGAGGT | 1.015 ± 0.0093
130 | TAAAAGTATA | 0.985 ± 0.018
131 | AAGTCGTCGA | 1.028 ± 0.0025
132 | TTAAAGGTTT | 1.01 ± 0.018
133 | GTTGTGGTGT | 1.02 ± 0.014
134 | GAGAGAATTT | 1 ± 0.02
135 | GGCCAGGGGG | 1 ± 0.09
136 | ATCGAATAGC | 1.02 ± 0.034
137 | AATGGCGGGC | 1.01 ± 0.029
138 | ATCGGACTTG | 0.977 ± 0.033

Row | Sequence | switch fluorescence ratio
139 | TCAGGGGCAT | 1.18 ± 0.3
140 | CTTGGCAGGG | 0.99 ± 0.02
141 | CGCACGGGTC | 1.11 ± 0.038
142 | AGGAGTTTGC | 1.068 ± 0.0073
143 | CGGTGGGGCG | 1 ± 0.034
144 | CGCTAATCAA | 1.09 ± 0.042
145 | AAGGGTTATG | 0.994 ± 0.027
146 | GTTTGCAACG | 0.986 ± 0.021
147 | AAGACCGGCA | 1.01 ± 0.038
148 | AAGACACAGA | 1.06 ± 0.035
149 | GGTGCTTTGG | 0.993 ± 0.046
150 | TCTATTTCGT | 1.01 ± 0.032
151 | GGTGCTAAGG | 1.02 ± 0.021
152 | AGAAATTATA | 1.001 ± 0.0073
153 | GGGTCAATAT | 1.13 ± 0.032
154 | TTGCATATAG | 1.3 ± 0.065
155 | ACACTTTACT | 1.32 ± 0.014
156 | CAACGTATTT | 1.113 ± 0.002
157 | CGCAATTGAG | 3.38 ± 0.17
